Measurements reported in patent US20100303724A1.

Legend:
biotin-collagelin [1] = test: SPR; biotin-collagelin on a streptavidin sensorchip, IgG 1.25 to 10 µg/mL
biotin-collagelin [2] = test: SPR
biotin-collagelin [3] = test: SPR; collagen injected on biotin-collagelin on a streptavidin sensorchip

Chain of biotin-collagelin (peptide, as listed by the source): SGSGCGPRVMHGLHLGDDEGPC

## anti-human platelet GPVI 9O12.2 IgG (antibody)
biotin-collagelin [1]
  Kd: 1000 nM

## murine laminin (Gibco)
biotin-collagelin [2]
  Kd: 18.3 µM

## type I equine fibrillar collagen (Collagen Horm, Nycomed)
biotin-collagelin [3]
  RU bound: 10 RU
